Test results reported in patent US20260008817A1, “CYCLIC PEPTIDE OR SALT THEREOF, AND USES THEREOF” (FUJIFILM Corporation, priority 2023, published 2026).
Positions of bridges follow the written chain, without caps; N, C: chain ends. Non-standard residues stand in square brackets, D forms with d. No end group written: not given here. COCH2 = acetyl group that carries the bridge; NMeL = CN[C@@H](CC(C)C)C(=O)O; hLeu = CC(C)CC[C@H](N)C(=O)O; hCys = N[C@@H](CCS)C(=O)O; Orn = NCCC[C@H](N)C(=O)O; Dab = NCC[C@H](N)C(=O)O; Dap = NC[C@H](N)C(=O)O

Legend:
[1] = target: T1, Recombinant Human FGFR1 alpha (IIIc) Fc Chimera Protein (Homo sapiens, UniProt P11362); experiment: SPR binding affinity of chemically synthesized cyclic peptide to immobilized FGFR; details: SPR binding amount at 10 nmol/L cyclic peptide, 25° C.; chemically synthesized product
T1 construct: purchased R&D systems 658-FR-050
T1 sequence (P11362 with tags, fused parts or gaps limits assumed): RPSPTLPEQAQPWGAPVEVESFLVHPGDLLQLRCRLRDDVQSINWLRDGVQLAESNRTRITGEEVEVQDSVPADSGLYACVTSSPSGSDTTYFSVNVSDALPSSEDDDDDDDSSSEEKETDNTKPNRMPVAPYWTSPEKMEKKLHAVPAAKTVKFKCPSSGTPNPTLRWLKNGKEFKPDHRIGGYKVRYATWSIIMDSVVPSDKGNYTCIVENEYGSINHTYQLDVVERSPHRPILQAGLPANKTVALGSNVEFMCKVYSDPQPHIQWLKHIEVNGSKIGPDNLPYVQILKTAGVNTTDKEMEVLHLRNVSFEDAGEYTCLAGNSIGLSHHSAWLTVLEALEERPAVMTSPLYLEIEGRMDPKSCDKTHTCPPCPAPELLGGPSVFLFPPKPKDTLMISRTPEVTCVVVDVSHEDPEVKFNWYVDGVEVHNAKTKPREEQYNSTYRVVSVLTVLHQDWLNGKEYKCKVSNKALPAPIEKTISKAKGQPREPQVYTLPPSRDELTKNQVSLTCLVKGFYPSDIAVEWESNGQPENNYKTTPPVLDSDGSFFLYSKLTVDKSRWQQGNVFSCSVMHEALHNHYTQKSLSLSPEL
Experimental: The binding affinity of the cyclic peptide to FGFR was evaluated using a surface plasmon resonance (SPR) method.
The binding affinity of the chemically synthesized cyclic peptide to FGFR was evaluated by the following procedure.
A CM5 sensor chip (Cytiva, 29149603) was set in Biacore-T200 (manufactured by Cytiva) which is a surface plasmon resonance device, and an HBS-EP buffer (Cytiva, BR100826) was added as a running buffer at a flow rate of 10 μL/min to equilibrate the flow channel. Next, 70 μL of a mixed aqueous solution of 0.2 mol/L 1-(3-dimethylaminopropyl)-3-ethylcarbodiimide (EDC) and 0.05 mol/L N-hydroxysuccinimide (NHS) was added to activate the sensor chip. Then, Recombinant Human FGFR1 alpha (IIIc) Fc Chimera Protein CF (R&D systems, 658-FR-050) prepared at 50 nmol/L in an Acetate 4.5 buffer (Cytiva, BR100350) was added thereto to perform immobilization at about 5000 RU. Thereafter, the blocking treatment was performed with an ethanolamine solution. In addition, in another flow channel of the same sensor chip, blocking treatment was performed immediately after activation without immobilizing FGFR.
A cyclic peptide diluted to 10 nmol/L using HBS-EP was added to each flow channel of the FGFR-immobilized sensor chip produced above at 25° C. for 10 minutes, then HBS-EP was allowed to flow as a running buffer for 30 minutes, and the binding of the cyclic peptide to FGFR was measured. Thereafter, a regeneration treatment of removing the bound cyclic peptide was performed by repeating the flow of a regeneration liquid in which sodium chloride powder was dissolved in Glysine 1.5 (Cytiva, BR100354) to a final concentration of 0.15 mol/L for 1 minute in each flow channel twice. The binding amount of the cyclic peptide was evaluated from the difference between the measured value of Biacore-T200 in the flow channel in which FGFR was immobilized and the measured value of Biacore-T200 in the flow channel in which FGFR was not immobilised, in a case where a 10 nmol/L cyclic peptide was allowed to flow.
The binding amount of the cyclic peptide evaluated above was normalized to the binding amount of the cyclic peptide molecules per one molecule of FGFR using the molecular weights of the cyclic peptide and FGFR, and the binding affinity to FGFR was evaluated according to the following evaluation criteria. The evaluation result preferably satisfies the evaluation criteria A, B, or C.
• A: The binding amount is 0.7 molecules of the cyclic peptide/one molecule of FGFR or more. • B: The binding amount is 0.5 molecules of the cyclic peptide/one molecule of FGFR or more and less than 0.7 molecules of cyclic peptide/one molecule of FGFR. • C: The binding amount is 0.1 molecules of cyclic peptide/one molecule of FGFR or more and less than 0.5 molecules of cyclic peptide/one molecule of FGFR. • D: The binding amount is less than 0.1 molecules of the cyclic peptide/one molecule of FGFR.

[2] = Reductive stability of cyclic peptide (DTT treatment, LC); format: physicochemical; details: residual rate after DTT treatment, room temperature, 1 hour
Experimental: The molecular stability of the cyclic peptide was evaluated by analyzing an aqueous solution of the cyclic peptide treated with a reducing agent by liquid chromatography (LC).
The reducing agent treatment was performed under the following conditions based on the concentration of glutathione contained in the cells. 25 μL of a 0.2 mg/mL cyclic peptide aqueous solution was prepared, 58.8 μL of a 12.6 mmol/L DTT aqueous solution was added to the aqueous solution, and the mixture was incubated at room temperature for 1 hour to obtain an aqueous solution of the cyclic peptide treated with a reducing agent. The DTT aqueous solution was used by diluting a 1 mol/L (+−)-dithiothreitol (DTT) solution (FUJIFILM Wako Pure Chemical Corporation, 044-33871) with water. The total area of all the peaks in LC/MS of the cyclic peptide before the reducing agent treatment was set to 100%, and the proportion of the total area of all the peaks in LC/MS of the aqueous solution of the cyclic peptide treated with the reducing agent was determined to calculate the residual rate of the cyclic peptide, and the molecular stability was evaluated according to the following evaluation criteria. The evaluation result preferably satisfies the evaluation criteria A, B, or C.
• A: The residual rate of cyclic peptide is 90% or more. • B: The residual rate of the cyclic peptide is 70% or more and less than 90% • C: The residual rate of the cyclic peptide is 50% or more and less than 70% • D: The residual rate of the cyclic peptide is less than 50%
The LC used for the evaluation of molecular stability was set to the following conditions. • LC device: Prominence series (pump, column oven, autosampler, detector) (manufactured by Shimadzu Corporation) • Detector: photodiode array detector (SPD-M20A), measurement wavelength of 280 nm • Column: TSKgel ODS-100V, inner diameter of 4.6 mm×length of 150 mm, particle diameter of 5 μm (manufactured by Tosoh Corporation) • Eluent A: solution containing 0.1% trifluoroacetic acid as solute, and solvent is 100% water • Eluent B: solution containing 0.1% trifluoroacetic acid as solute, and solvent is 100% acetonitrile • Flow rate: 1.0 mL/min • Injection amount: 25 μL • Gradient: 20% to 50%: Eluent B (0 to 15 minutes), 100%: Eluent B (15 minutes) • Column temperature: 40° C.

[3] = target: Recombinant Human FGFR1 alpha (IIIc) Fc Chimera Protein, CF (R&D systems, 658-FR-050) (human) (UniProt P11362); experiment: SPR grade, peptide 10 nmol/L over FGFR1-Fc; details: scale: moleculesofcyclicpeptide/onemoleculeoffgfr
Chain of Recombinant Human FGFR1 alpha (IIIc) Fc Chimera Protein, CF (R&D systems, 658-FR-050) (human) (P11362 22-376, change not shown): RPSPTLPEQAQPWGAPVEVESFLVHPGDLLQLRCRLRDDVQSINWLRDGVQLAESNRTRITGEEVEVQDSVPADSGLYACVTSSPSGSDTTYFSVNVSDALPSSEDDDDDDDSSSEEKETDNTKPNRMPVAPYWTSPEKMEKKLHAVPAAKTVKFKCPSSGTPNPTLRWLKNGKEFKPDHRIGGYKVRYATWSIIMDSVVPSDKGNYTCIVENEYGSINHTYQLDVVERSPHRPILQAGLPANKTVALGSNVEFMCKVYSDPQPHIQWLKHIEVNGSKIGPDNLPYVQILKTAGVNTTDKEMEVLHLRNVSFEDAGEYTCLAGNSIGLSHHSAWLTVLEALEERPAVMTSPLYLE

Row | Molecule | binding amount (SPR, molecules of cyclic peptide bound per one molecule of FGFR at 10 nmol/L peptide) [3] | Evaluation result of binding affinity to FGFR [1] | Evaluation result of reductive stability [2]
1 | 337 (F[Orn](COCH2)VYTFDAHAHSLDAALN[hCys]IKKK; thioether 2-19) [compound 337] | – | C (The binding amount is 0.1 molecules of cyclic peptide/one molecule of FGFR or more and less than 0.5 molecules of cyclic peptide/one molecule of FGFR.) | B (The residual rate of the cyclic peptide is 70% or more and less than 90%)
2 | 329 (A[hCys]VWTFDRHAQEISQALH[Dab](COCH2)VKKK; thioether 2-19) [compound 329] | – | B (The binding amount is 0.5 molecules of the cyclic peptide/one molecule of FGFR or more and less than 0.7 molecules of cyclic peptide/one molecule of FGFR.) | A (The residual rate of cyclic peptide is 90% or more.)
3 | 339 (F[Orn](COCH2)VYTFDAHAHS[NMeL]DAALN[hCys]IKKK; thioether 2-19) [compound 339] | – | C (The binding amount is 0.1 molecules of cyclic peptide/one molecule of FGFR or more and less than 0.5 molecules of cyclic peptide/one molecule of FGFR.) | B (The residual rate of the cyclic peptide is 70% or more and less than 90%)
4 | 340 (F[Orn](COCH2)VYTFDAHAHS[hLeu]DAALN[hCys]IKKK; thioether 2-19) [compound 340] | – | B (The binding amount is 0.5 molecules of the cyclic peptide/one molecule of FGFR or more and less than 0.7 molecules of cyclic peptide/one molecule of FGFR.) | B (The residual rate of the cyclic peptide is 70% or more and less than 90%)
5 | 338 (FXVYTFDAHAHSLDAALNXIKKK; Description of Artificial Sequence: Cyclic peptide) [compound 338] | – | C (The binding amount is 0.1 molecules of cyclic peptide/one molecule of FGFR or more and less than 0.5 molecules of cyclic peptide/one molecule of FGFR.) | A (The residual rate of cyclic peptide is 90% or more.)
6 | 333 (AXVWTFDRHAQEISQALHXVKKK; not fully specified; Description of Artificial Sequence: Cyclic peptide) [compound 333] | – | A (The binding amount is 0.7 molecules of the cyclic peptide/one molecule of FGFR or more.) | A (The residual rate of cyclic peptide is 90% or more.)
7 | 327 (A[hCys]VWTFDRHAQEISQALHK(COCH2)VKKK; thioether 2-19) [compound 327] | – | A (The binding amount is 0.7 molecules of the cyclic peptide/one molecule of FGFR or more.) | A (The residual rate of cyclic peptide is 90% or more.)
8 | 342 (F[Orn](COCH2)VYTFDAHAHSLDAALN[hCys]KKK; thioether 2-19) [compound 342] | – | C (The binding amount is 0.1 molecules of cyclic peptide/one molecule of FGFR or more and less than 0.5 molecules of cyclic peptide/one molecule of FGFR.) | B (The residual rate of the cyclic peptide is 70% or more and less than 90%)
9 | 341 ([Orn](COCH2)VYTFDAHAHSLDAALN[hCys]IKKK; thioether 1-18) [compound 341] | – | C (The binding amount is 0.1 molecules of cyclic peptide/one molecule of FGFR or more and less than 0.5 molecules of cyclic peptide/one molecule of FGFR.) | B (The residual rate of the cyclic peptide is 70% or more and less than 90%)
10 | 336 (ACVWTFDRHAQEISQALHCVKKK; disulfide 2-19 (inferred)) [compound 336] | – | D (The binding amount is less than 0.1 molecules of the cyclic peptide/one molecule of FGFR.) | D (The residual rate of the cyclic peptide is less than 50%)

The next lines start with results.

Row | binding amount (SPR, molecules of cyclic peptide bound per one molecule of FGFR at 10 nmol/L peptide) [3] | Molecule | Evaluation result of binding affinity to FGFR [1] | Evaluation result of reductive stability [2]
11 | < 0.1 | ACVWTFDRHAQEISQALHCVKKK (disulfide 2-19) [cyclic peptide SEQ ID NO: 336] | – | –
12 | 0.5 to 0.7 | AK(COCH2)VWTFDRHAQEISQALH[hCys]VKKK (thioether 2-19) [cyclic peptide SEQ ID NO: 331] | – | –
13 | 0.1 to 0.5 | F[Orn](COCH2)VYTFDAHAHS[NMeL]DAALN[hCys]IKKK (thioether 2-19) [cyclic peptide SEQ ID NO: 339] | – | –
14 | 0.5 to 0.7 | F[Orn](COCH2)VYTFDAHAHS[hLeu]DAALN[hCys]IKKK (thioether 2-19) [cyclic peptide SEQ ID NO: 340] | – | –
15 | 0.1 to 0.5 | FXVYTFDAHAHSLDAALNXIKKK ((Orn(propyl)) and (Hcy) homocysteine joined by a thioether ring) [cyclic peptide SEQ ID NO: 338] | – | –
16 | 0.1 to 0.5 | F[Orn](COCH2)VYTFDAHAHSLDAALN[hCys]KKK (thioether 2-19) [cyclic peptide SEQ ID NO: 342] | – | –
17 | > 0.7 | A[Orn](COCH2)VWTFDRHAQEISQALH[hCys]VKKK (thioether 2-19) [cyclic peptide SEQ ID NO: 332] | – | –
18 | > 0.7 | A[Dab](COCH2)VWTFDRHAQEISQALH[hCys]VKKK (thioether 2-19) [cyclic peptide SEQ ID NO: 333] | – | –
19 | 0.1 to 0.5 | F[Orn](COCH2)VYTFDAHAHSLDAALN[hCys]IKKK (thioether 2-19) [cyclic peptide SEQ ID NO: 337] | – | –
20 | > 0.7 | A[Dap](COCH2)VWTFDRHAQEISQALH[hCys]VKKK (thioether 2-19) [cyclic peptide SEQ ID NO: 334] | – | –
21 | 0.1 to 0.5 | [Orn](COCH2)VYTFDAHAHSLDAALN[hCys]IKKK (thioether 1-18) [cyclic peptide SEQ ID NO: 341] | – | –
